This data set can be described thus: protein stability index of a GFP-peptide fusion (GPS, HEK-293T) (PSI 1-6); higher = more stable. The following applies: c terminus: a fixed tail appended.

Experimental findings from the supplement of paper PMC10567573 are described below.

± gives the standard deviation.
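Also: 24-mer peptide tiles fused after GFP, lentivirally expressed, FACS-sorted into six equal bins by GFP/DsRed ratio, decoded by Illumina sequencing, PSI is the read-weighted mean bin number.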

Turning to EGSLWAVGTESQGRDWRHLPTITS [PXN], the protein stability index came to 3.23 ± 0.16 (treatment: DMSO) and 3.34 ± 0.16 (treatment: MLN4924 1 uM, 8 h).
In the same order, the values of WETIRSFKDEWTQLDMFYRNWALK [AASDHPPT] are 2.14 ± 0.13 and 2.08 ± 0.32.
In the same order, the values of YHIYVALEEEIERNKESPVFAPVY [HMOX1] are 2.32 ± 0.28 and 3.03 ± 0.51.
In the same order, the values of TANCEACTLGICGQGLKSYMTKPS [RTP4] are 2.89 ± 0.025 and 3.01 ± 0.26.
With ILAVSFAPLVQPSKNDNGKPDSVG [PCMTD1], the protein stability index was determined as 2.98 ± 0.27 (treatment: DMSO) and 3.14 ± 0.35 (treatment: MLN4924 1 uM, 8 h).
With NFCHIHNCIHRDIKPENILITKQG [CDKL4], the protein stability index (treatment: DMSO) was found to be 2.53 ± 0.067 and the protein stability index (treatment: MLN4924 1 uM, 8 h) is 2.74 ± 0.43.
In the same order, the values of ISHEEQKSVRLARELESREAELRR [CHCHD6] are 5 ± 0.3 and 5.14 ± 0.37.
In the same order, the values of KGKDNKHPMYRRLVHSAVDVPTIQ [ZMYND11] are 3.71 ± 0.18 and 3.71 ± 0.28.
Turning to LVYLGDLSRYQNELAGVDTELLAE [SMG5], the protein stability index was determined as 2.51 ± 0.2 (treatment: DMSO) and 2.74 ± 0.11 (treatment: MLN4924 1 uM, 8 h).
In the same order, the values of LRTLDKKTFYKTADISQMLVCTAD [TAF7L] are 2.61 ± 0.32 and 2.65 ± 0.41.
In the same order, the values of LRSSDLYRHQRLHTGERPYECTVC [ZNF449] are 3.05 ± 0.17 and 3.17 ± 0.29.
In the same order, the values of PPHYFFTYRIRIEMSKDALPEKAC [FBXO3] are 2.47 ± 0.48 and 2.17 ± 0.23.
Regarding RTTVHDKSAHQTHSSWTPPNAQYW [DNAJC4], the protein stability index reads like this: (treatment: DMSO) 2.99 ± 0.32; (treatment: MLN4924 1 uM, 8 h) 3.02 ± 0.33.
In the same order, the values of CEGRRTRFRSCNTEDCPTGSALTF [ADAMTS4] are 3.42 ± 0.18 and 3.29 ± 0.092.
In the same order, the values of QLIDPDENKENEAFEFKKPVRPVS [CDC25A] are 3.59 ± 0.41 and 4.03 ± 0.27.
For IEKVSVSTQTKKLSASSPRMLHRS [ZMYND11] the same measures were 3.96 ± 0.23 and 4.03 ± 0.34.
The sequence ILLEYCSRRSMAHILKARKVLTEP [PLK2] came in with a protein stability index (treatment: DMSO) of 2.48 ± 0.5 and a protein stability index (treatment: MLN4924 1 uM, 8 h) of 2.18 ± 0.33.
For ATDMISIFEPPVRNSGIIGGKYLG [EFHC1] the same measures were 2.92 ± 0.25 and 3.16 ± 0.21.
For VAALREEQKVLSRLVESLSTQIRA [RASAL3] the same measures were 2.34 ± 0.35 and 2.38 ± 0.11.
In the same order, the values of PPVSQSRSLFSSVPSKPPMSLEPQ [ANKRD40] are 4.53 ± 0.11 and 4.68 ± 0.4.
For the sequence VRELRIAFREFDRDRDGRITVAEL [CABP4], the protein stability index was 2.7 ± 0.49 (treatment: DMSO) and 2.98 ± 0.17 (treatment: MLN4924 1 uM, 8 h).
Consider DLSVPLMDVGETAMVTADSKYCYG [FKBP8], for which the protein stability index stood at 4.1 ± 0.31 (treatment: DMSO) and 4.44 ± 0.22 (treatment: MLN4924 1 uM, 8 h).
In the same order, the values of DMKYGIYAVENEHMNRLQSQRAML [VTI1B] are 2.72 ± 0.25 and 2.93 ± 0.31.
For HDYHGILVDEEEKVLIQKNLGPKS [ADD1] the same measures were 4.79 ± 0.33 and 4.9 ± 0.075.
In the same order, the values of MQPPPPGPLGDCLRDWEDLQQDFQ [TMEM120A] are 4.86 ± 0.2 and 4.66 ± 0.2.
In the case of QDKSESLSDNATAFSNRSKQLRRQ [VAMP4], the protein stability index runs as follows: (treatment: DMSO) 5.36 ± 0.4; (treatment: MLN4924 1 uM, 8 h) 5.17 ± 0.21.
Consider VQFSHHVFLNLHTLKFYCLPDNYE [USP39], for which the protein stability index (treatment: DMSO) was 2.89 ± 0.61 and the protein stability index (treatment: MLN4924 1 uM, 8 h) was determined as 3.04 ± 0.74.
For FNGLTLLLMAVVSMFTLPVVYVKH [RTN1] the same measures were 3.3 ± 0.28 and 3 ± 0.41.
Take KLFDVPSLNGVYPRMNEVYTRLGE [CEP70]: the protein stability index reads like this: (treatment: DMSO) 2.65 ± 0.17; (treatment: MLN4924 1 uM, 8 h) 2.53 ± 0.34.
As to TGEAGEELDLRLRLAQPSSPEVLT [RTN2], the protein stability index runs as follows: (treatment: DMSO) 4.9 ± 0.41; (treatment: MLN4924 1 uM, 8 h) 5.01 ± 0.29.
In the same order, the values of IHGGVVNIHENKRTGSLFKIWLVV [KLHDC10] are 2.85 ± 0.47 and 2.45 ± 0.62.
For GEGNSSQNSRNKRAVQGPEETVTQ [TNFSF13B] the same measures were 5.51 ± 0.2 and 5.47 ± 0.096.
For ACFLVRGLLLRGAVDGILHMFTPK [SLC6A17] the same measures were 2.39 ± 0.73 and 2.83 ± 1.2.
Consider PTEGQGSLLTNWPSVPPTIKEEEN [MYBL2], for which the protein stability index turned out to be 5.46 ± 0.23 (treatment: DMSO) and 5.42 ± 0.18 (treatment: MLN4924 1 uM, 8 h).
In the same order, the values of SRLQLLGATCMFVASKMKETIPLT [CCND1] are 2.69 ± 0.44 and 2.69 ± 0.66.
For FPKQILDQNNVIENEETGEFSIDN [MIA2] the same measures were 5.136 ± 0.027 and 5.06 ± 0.24.
On to MGSSQATMTSSQSMNFSMMSTNTV [CLINT1], for which the protein stability index is 3.28 ± 0.27 (treatment: DMSO) and 3.64 ± 0.25 (treatment: MLN4924 1 uM, 8 h).
As to KVLRKAGLSAGYVDAGAEPGRSRM [LPCAT4], the protein stability index is, setting by setting: (treatment: DMSO) 3.6 ± 0.31; (treatment: MLN4924 1 uM, 8 h) 3.73 ± 0.25.
In the same order, the values of PFGESNGNGVHVCNVKYKRWALLS [KLHDC10] are 2.08 ± 0.22 and 2.26 ± 0.33.
In the same order, the values of KDPRDPEESKEPKEEKQRRRCKPK [GNAS] are 5.37 ± 0.26 and 5.26 ± 0.3.
For MMSVNGQAKTHTDSSEKELEPEAA [ACBD3] the same measures were 5.45 ± 0.21 and 5.38 ± 0.23.
In the case of AGRRMFPSYKVKVTGLNPKTKYIL [TBX5], the protein stability index runs as follows: (treatment: DMSO) 2.12 ± 0.4; (treatment: MLN4924 1 uM, 8 h) 2.2 ± 0.29.
For LKDIFMFITRQLKGLEDTKSPQFN [PDS5B] the same measures were 2.11 ± 0.058 and 2.54 ± 0.31.
For ELSRQVRSSVELELERCRQQAGLL [PPEF2] the same measures were 3.23 ± 0.25 and 3.2 ± 0.39.
With TLVQREEPLRILSKYHRFISFTLY [CDS2], the protein stability index turned out to be 2.95 ± 0.8 (treatment: DMSO) and 2.8 ± 0.86 (treatment: MLN4924 1 uM, 8 h).
In the same order, the values of STPQGKGEVVKIPSRVHGSLEPFR [PWWP2B] are 3.86 ± 0.16 and 4.03 ± 0.28.
For LEAGASAASTAAALENLQVEASCS [TRIM39] the same measures were 5.36 ± 0.2 and 5.3 ± 0.37.
In the same order, the values of GDPEEPLTGFSWRGGSDPETTGIQ [ATL3] are 5.13 ± 0.22 and 5.17 ± 0.12.
The sequence VAYRSLGRFEQLGKTAASWCLHVN [FSD1] gave a protein stability index (treatment: DMSO) of 2.6 ± 0.6 and a protein stability index (treatment: MLN4924 1 uM, 8 h) of 2.2 ± 0.36.
In the same order, the values of AEAAPELDLFAMKPPETSVPVVTP [SNAP91] are 4.89 ± 0.15 and 4.98 ± 0.1.
For AEQEPTRKLFEVESVTHHDYRMEL [SPAG8] the same measures were 4.16 ± 0.16 and 4.33 ± 0.18.
In the same order, the values of HCASPPPSSNNKELFYRVNYIGTK [NSDHL] are 3.18 ± 0.17 and 3.31 ± 0.19.
Regarding IFATKPHVLPAVLAEVAPVVTTEH [PYCR3], the protein stability index reads like this: (treatment: DMSO) 3.33 ± 0.38; (treatment: MLN4924 1 uM, 8 h) 3.4 ± 0.21.
For TAVAQGGWRSLWLGWGPTALRDVP [SLC25A39], the protein stability index was found to be 2.45 ± 0.14 (treatment: DMSO) and 1.89 ± 0.17 (treatment: MLN4924 1 uM, 8 h).
For CSKQSGSFRKFRYGYNNVVTIPAG [ADAMTS4] the same measures were 2.3 ± 0.44 and 2.23 ± 0.35.
For TGEKLLELNGHTQKITAIITFPSL [WDR41] the same measures were 2.45 ± 0.58 and 2.3 ± 0.55.
For TGYLSTMVGLILGPFGINHGIELH [PCMTD1] the same measures were 3.29 ± 0.44 and 3.35 ± 0.25.
SMNRVKNISDADVHNAMDNYECNL [FEM1B] registered a protein stability index (treatment: DMSO) of 4.18 ± 0.29 and a protein stability index (treatment: MLN4924 1 uM, 8 h) of 4.3 ± 0.29.
For RVVCGIDSSMILTVPGQALACGSN [NEK8] the same measures were 2.73 ± 0.12 and 2.52 ± 0.29.
In the same order, the values of RGDGGIYIGSIMKGGAVAADGRIE [DVL3] are 3.65 ± 0.18 and 3.75 ± 0.21.
Turning to DEDEVAAEEPNAAVPDEIPPLEGD [HSP90AB1], the protein stability index runs as follows: (treatment: DMSO) 5.49 ± 0.47; (treatment: MLN4924 1 uM, 8 h) 5.61 ± 0.24.
Take ENNYYWSASECMQDFNTMFTNCYI [BRD3]: the protein stability index (treatment: DMSO) worked out at 2.28 ± 0.67 and the protein stability index (treatment: MLN4924 1 uM, 8 h) turned out to be 2.49 ± 0.44.
In the same order, the values of MQELTEMLGFRPYRFYFYMWKFVS [SLC6A17] are 2.39 ± 0.21 and 2.35 ± 0.35.
For SWLESCIVGWRCRVGQWVRMENVT [GMPPB] the same measures were 2.79 ± 0.63 and 2.69 ± 0.76.
On to TAFNFFKMAVSRHLTRGRKMAHVI [BRF1], for which the protein stability index reads like this: (treatment: DMSO) 2.66 ± 0.61; (treatment: MLN4924 1 uM, 8 h) 2.33 ± 0.36.
EPANLDILDTAGQAEFTAMRDQYM [RIT1]: the protein stability index was 4.83 ± 0.24 (treatment: DMSO) and 4.67 ± 0.2 (treatment: MLN4924 1 uM, 8 h).
In the same order, the values of LRGPSPWGFRLVGGRDFSAPLTIS [PDLIM4] are 2.79 ± 0.2 and 2.44 ± 0.22.
KSQIMSLSHSPQEDWVLLGMANGQ [TLE6]: the protein stability index runs as follows: (treatment: DMSO) 3.15 ± 0.2; (treatment: MLN4924 1 uM, 8 h) 3.12 ± 0.17.
In the same order, the values of SRLLFFLLGFLRIRVRGQRASRLQ [LPCAT4] are 2.35 ± 0.09 and 2.58 ± 0.31.
Sequence KTIKRPFGVKYNPYTRSIQILKDT [TPH1] displayed a protein stability index (treatment: DMSO) of 2.35 ± 0.2 and a protein stability index (treatment: MLN4924 1 uM, 8 h) of 2.19 ± 0.22.
In the case of ELQNQLAACTRALESSEELLETAN [FSD1], the protein stability index runs as follows: (treatment: DMSO) 4.24 ± 0.37; (treatment: MLN4924 1 uM, 8 h) 4.37 ± 0.39.
In the same order, the values of PSHLLLPPDTVSRTGLEKAAAGAV [SPDEF] are 4.22 ± 0.33 and 4.26 ± 0.35.
